T1: nucleoprotein (NP) of influenza A, prototype human isolate A/Wilson-Smith/1933 (influenza A virus (strain A/Wilson-Smith/1933)), P15682
T1 chain: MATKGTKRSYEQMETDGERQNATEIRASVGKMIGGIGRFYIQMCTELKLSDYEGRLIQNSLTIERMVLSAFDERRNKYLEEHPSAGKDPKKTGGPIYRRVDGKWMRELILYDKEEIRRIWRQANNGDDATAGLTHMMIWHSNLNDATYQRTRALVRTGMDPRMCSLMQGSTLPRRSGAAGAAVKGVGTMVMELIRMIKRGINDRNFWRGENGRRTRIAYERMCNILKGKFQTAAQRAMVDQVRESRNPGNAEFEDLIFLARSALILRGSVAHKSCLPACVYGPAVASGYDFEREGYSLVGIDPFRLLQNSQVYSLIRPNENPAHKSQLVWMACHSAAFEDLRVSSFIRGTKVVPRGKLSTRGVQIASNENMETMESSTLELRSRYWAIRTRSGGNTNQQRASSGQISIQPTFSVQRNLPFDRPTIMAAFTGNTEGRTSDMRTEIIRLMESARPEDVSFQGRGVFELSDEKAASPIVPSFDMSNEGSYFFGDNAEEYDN

B1: nucleoprotein (NP) of influenza A, prototype human isolate A/Wilson-Smith/1933, P15682 1-498 (natural protein)
chain: T1 chain

Legend:
[1] = biological target: OVX836, NP of influenza A (A/Wilson-Smith/1933) fused through its C-terminus to the oligomerization domain OVX313 (influenza A virus (strain A/Wilson-Smith/1933)); test: reversed-phase chromatography (RP-UHPLC)
[2] = biological target: OVX836, NP of influenza A (A/Wilson-Smith/1933) fused through its C-terminus to the oligomerization domain OVX313 (influenza A virus (strain A/Wilson-Smith/1933)); test: SEC
[3] = biological target: T1, nucleoprotein (NP) of influenza A, …; test: SEC; settings: remark: other sources report otherwise

Row | Molecule | stoichiometry N [1] | stoichiometry N [2] | stoichiometry N [3]
1 | OVX836, NP of influenza A (A/Wilson-Smith/1933) fused through its C-terminus to the oligomerization domain OVX313 | 7 | 7 | 
2 | B1 |  |  | 3

Source: PMC6344521
